Data taken from the RNAGym collection of RNA variant scans (doi:10.1073/pnas.2313332121).

B1: TPR t1 (parent)
chain: GACCAAUCUGCCCUCAGAGCUCGAGAACAUCUUCGGAUGCAGAGGAGGCAGGCUUCGGUGGCGCGAUAGCGCCAACGUCCUCAACCUCCAAUGCAUCCCACCACAUGAUGAUGCCUGAAGAGCCUUGGUUUUUUG

Variants of: B1
Assay: polymerase ribozyme fitness, log enrichment relative to wild type (log ratio); higher = more active; in vitro selection for triplet polymerase activity
How it was run: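 One round of in vitro selection, in triplicate, was applied to PCR-built, transcribed mutant libraries of each subunit of a heterodimeric triplet polymerase ribozyme. The steps were annealing with a biotinylated primer, partner subunit and triplets, incubation frozen at −7 °C, gel excision of extended constructs, streptavidin-bead capture and RT-PCR. Fitness is the logarithm, base 2, of genotype enrichment over wild-type enrichment from inverse-variance-weighted replicate averages of Illumina-sequenced inputs and outputs, keeping genotypes with ≥10 input reads and ≥1 read per output.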

Variant	polymerase ribozyme fitness (log ratio)
A24U G117U	-6.09
A27G U112A	1.03
A24U G61A	-5.9
G23U G60U G65C C99G C123U	-7.81
A27C C49U	-4.08
A24G C102U	-3.7
A24G U38A U55A	-2.85
G23U G63C	-6.19
A24G C40U C62G	-3.54
A26U C72U C123U	-2.2
G25U C34G G36C C97A U112G	-6.79
A26U G44U C64G C89U U112G	-6.55
G25A C31U G63U G77U G117A C124U	-7.34
A26G G48A C53G C89U A91C	-4.13
G23U A26G A37U G69U	-5.18
A27U C76U A95G U130G	-4.08
A27U U81C G120A G135A	-4.49
A27C C82G G110U	-5.23
G25A C64U	-4.8
A27G C64U C73U	-2.48
G25A C40U G63A G113C U129A	-6.66
A24U G39A	-7.92
A26U G52A U112A U131C	-2.99
A27C C72A C79U G113U	-6.86

Variant	polymerase ribozyme fitness (log ratio)
A27G C115U	-4.58
A24G C62U C104A C115A G135C	-4.17
A24U G60A	-4.63
A27C C72G U112C G120C U126C U131A	-4.66
A26C C97U	-5.92
A24G C53U	-2.07
A24G G52A	-1.78
A27U C85A C86A C101G	-5.15
A27G A84C C99U	-5.83
A27G C72U	-1.76
A24U C124U	-5.45
A24U C124G	-5.19
G25A G63C	-6.68
A27G A105C	-3.41
G25U C31G G42A A46U C70U G110U G128U	-6.32
C28A C72A C123G U126C	-2
A27C C62A	-2.54
G23U G45A C56U C98A U112G	-6.47
A27C A41C U106C	-5.25
G23A U106A	-3.44
A26C C73A U81C C88A A108G C114G A119U	-6.8
A26G C123G C124U G135U	-1.25
A24C G48C U87A C97U C124A	-7.52
A27U C49U A90G G93U	-3.23

Variant	polymerase ribozyme fitness (log ratio)
G23U G120A	-6.57
A27U C72U U87G	-3.11
A27G A83G C86U	-2.33
A24G G63U	-3.19
G23U C64U	-4.56
A27C U55G G57C A111U G122A	-5.04
A26C U106A	-3.34
A24C G51U G61C C79A C102A G110U	-6.53
G23C C49G G51C G61U G117U G128C	-6.88
G23C C70G	-7.47
A24G A41C	-2.27
G25A C70A	-6.74
A24U G69U C88A C114A	-6.87
A26U G61C	-3.63
G23C G69A G120A A121U C123U U129C	-6.52
C28A C88G G120A	-3.89
G25U C64G C94U C124G	-6.12
A27C C56G	-3.34
A27C C56A	-3.22
A27U C72U U106G U129A G135U	-5.91
A27G G45C G63A C104A U131C	-6.14
A26U U32C C94A	-4.33
A26G G44U C56U G120U U130A	-2.98
A27G G42U A75G	-3.6

Variant	polymerase ribozyme fitness (log ratio)
A27U C62U G117U C123G	-5.03
C28A G42A G77C G110U	-1.22
G23C A26G C98U A105G C114G	-7.07
G25U A37U C40U G44U G47C C64A U106G U112A	-6.12
A24G A111G	-2.06
C28A A119U	-4.75
A26C A43G G69A U78G C82G C115A C123U U130G	-6.36
A26G G120U	-1.88
A27U A68U A90C G93A C101G G110U	-7.92
A24U A84U C114U G122A U132C	-6.39
G23A C72U	-5.21
A24G G77A C115U	-2.98
A24G C115A	-1.25
C28A C76G G120A	-4.53
A27U G60U G63A U109A C124U	-6.47
A24G G128A U130G	-4.18
A27U C104U	-3.5
G23A G77A	-6.34
G25U C56U C123G	-6.4
A27G G42A C73G	-5.22
A26U G71A	-3.13
G23U A90U	-6.86
A27G C56A C72U G120U	-2.12
A24G G47C A90U	-4.32

Variant	polymerase ribozyme fitness (log ratio)
A24G C85A U96A	-3.35
C28A G63A	-5.86
A26G G45A G48U	-3.98
G25U G39U U106A C114U	-5.15
G25A A26U A43G G61C U78A C102U G110C	-7.68
A24U G45A G60A C115U	-6.73
A27G A37U A121G	0.646
A26U U78C	-2.92
A27G A46G C72U	-3.52
A26U U54C	-2.99
G23U C124A	-4.31
A27C C31U A46C A84C C89A G110U U112A C123U U125A	-6.63
G25U C72U C88A U109C A119U C123U	-8.09
A26U C40A	-4.26
A26U C40U	-4.02
A27C A74C	-3.6
A26U G52A	-4.18
A27C C72A	-3.22
A24G G69U A100U	-1.09
G23U G69C G120A	-5.9
A27U G47A U125G	-2.83
A27U C53U G77A	-3.79
A26C C82A	-5.2
A27U A119C G120A	-2.76

Variant	polymerase ribozyme fitness (log ratio)
A27C U54A C64A G113A	-5.44
A26U G47U C64A C85U G107C A108G G110C	-6.9
A24G U54A A68U G71A U112A	-8.22
A26U C79G C124U	-4.91
A26C G45C U87C	-6.66
G25U G35A A41U U112G	-7.04
A26U A121U	-0.422
A27C U67G G107A U109A C123G C124G	-6.73
A26U G117A	-5.38
A27G C64U	-2.01
C28A G61U G120A	-3.5
A26C C88U	-5.08
A24G G47A	-2.63
A26U G45A U54A	-4.06
G25A G45U C88G A90G C99G C115A	-7.43
A26G A46C G52C	-4.5
G25A C31G U32G C40U C72U U106C A108U C124A	-7.62
A26U C94U C123G U132C	-1.68
A24G G63C G71U C123G	-5.78
G25U G69U	-4.36
G25U A37U	-5.61
C28A G61A	-4.06
A26U A50C C56A C124A	-2.3
A27G U38C C40G C49G G63U A95G U132A	-3.68

Variant	polymerase ribozyme fitness (log ratio)
A27U C49G G51U C79G	-6.98
A27C G57U G69U C124G	0.217
A27U C79G G127U	-4.93
A26G G45C A75U	-4.25
A27G C40U C49G C73U	-2.98
A26U A41C	-4.03
A27U C40U C82A	-3.5
A26U U59A G63A	-5.57
G25U C80A C88U A121C	-6.51
A27G C56U U96A U109G C115G C124U	-7.02
A24G C88U A95C C124A U133A	-0.316
A26U C123G	-1.74
G25A C64G U81A C114A	-5.93
A26U G57U	-4.04
A26U C72U	-2.63
A27C C85U C123U	-3.3
A27U C31G G69U C79G G120C U130G U132A	-6.29
A27U G39C	-3.26
A27U G39U	-4.25
G25U G47U	-6.74
G23U U112G C114U C124G U125C	-7.12
A27U G57C C89G G120A U131A	-4.12
A27U U30A G61U C72U A84C C98G A111U	-8.22
